Assay [1] deals with T1, FcγRIIB (CD32B) on Daudi cells (human, UniProt P31994 43-310).
T1 construct: whole, on cells; also called human B cell tumor line
T1 sequence (looked up): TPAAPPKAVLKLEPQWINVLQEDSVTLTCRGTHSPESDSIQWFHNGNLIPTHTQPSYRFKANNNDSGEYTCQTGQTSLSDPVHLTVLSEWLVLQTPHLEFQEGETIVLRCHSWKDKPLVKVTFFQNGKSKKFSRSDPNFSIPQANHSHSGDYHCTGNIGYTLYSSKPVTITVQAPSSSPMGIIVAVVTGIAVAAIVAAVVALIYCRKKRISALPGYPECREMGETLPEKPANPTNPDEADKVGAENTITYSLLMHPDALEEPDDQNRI
Briefly: FACS on Daudi cells, primary antibody 0.02 µg/ml, PE anti-human IgG Fc secondary. On the procedure: (§1) Protocol for FACS analysis. Approximately 10⁶ Daudi cells were used for each antibody staining. Cells were washed once with PBS. Primary antibodies (Ch2B6, Hu2B6Hc/ch2B6Lc, human IgG1) were diluted into 0.5, 0.1, 0.02 μg/mL in PBS/1% BSA and 100 μL of diluted antibodies was transferred to the cells. After 30 mins incubation at 4° C., cells were washed once with 1 mL PBS/1% BSA. PE conjugated F(ab′)₂ fragment of goat anti human IgG Fc specific (Jackson ImmunoReseach, Inc.) was used as secondary antibody at 1:1000 dilution. After 30 mins incubation at 4° C., cells were washed once with 1 mL PBS/1% BSA. The cells were then resuspended in 500 μL of PBS/1% BSA and subjected to be FACS analysis.
(§2) Transfections of HEK-293 cells were performed using the following combinations: hu2B6HC/hu2B6LC; hu2B6HC/hu2B6LC(N50Y); hu2B6HC/hu2B6LC(N50Y,V51A); ch2B6HC/ch2B6LC. After three days in culture the amount of human IgG expressed was quantitated by an ELISA assay, using the method described above. Binding to dimeric soluble FcγRIIb-Fc was determined by ELISA assay. […] FACS analysis was then performed to measure the binding of the mAbs to Daudi cells (Table 8).

The target of assay [2] is T1, FcγRIIB (CD32B) on Daudi cells. Put plainly: FACS on Daudi cells, primary antibody 0.5 ug/ml, PE anti-human IgG Fc secondary.
Assay [3] shares this target. Briefly: FACS on Daudi cells, primary antibody 0.1 µg/ml, PE anti-human IgG Fc secondary. On the procedure: as §1, §2
Assay [4] shares this target. Put plainly: FACS on Daudi cells, primary antibody 0.02 ug/ml, PE anti-human IgG Fc secondary.
The target is the same in assay [5]. Briefly: FACS on Daudi cells, primary antibody 0.5 µg/ml, PE anti-human IgG Fc secondary. On the procedure:
as §1, §2

For assay [6] the target is unchanged. Put plainly: FACS on Daudi cells, primary antibody 0.1 ug/ml, PE anti-human IgG Fc secondary.
The target of a further assay is T2, soluble FcγIIA (UniProt P12318 34-217).
T2 construct: also called dimeric soluble FcγRIIa-Fc; FcγRIIA; not shown: the p
T2 sequence (looked up): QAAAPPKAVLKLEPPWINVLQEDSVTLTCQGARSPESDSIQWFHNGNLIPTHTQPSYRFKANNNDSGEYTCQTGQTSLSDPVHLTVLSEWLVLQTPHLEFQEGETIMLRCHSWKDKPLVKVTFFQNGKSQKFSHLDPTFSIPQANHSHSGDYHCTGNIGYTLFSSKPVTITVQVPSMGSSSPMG
Put plainly: ELISA, 100 ng/well soluble FcγIIA coated. As for the experimental part:
Protocol for ELISA assay: 100 ng/well of soluble FcγIIA in carbonate buffer was coated on 96-well Maxisorp plates at 4° C. overnight. A serial of two-fold dilution of conditioned medium of Ch2B6; hu2B6HC/hu2B6LC; hu2B6HC/hu2B6LC(N50Y); hu2B6HC/hu2B6LC(N50Y,V51A); and purified IV.3 starting from 25 ng/well was added to the each well. The plate was incubated at room temperature for 1 hour. The binding was detected by HRP conjugated F(ab′)2 goat anti human IgG F(ab′)2 specific secondary antibody for Ch2B6 and all hu2B6 samples and HRP conjugated F(ab′)2 goat anti mouse IgG (H+L) secondary antibody for IV.3. After incubation with the secondary antibody for approximately 45 minutes, the plate was developed using a TMB substrate. After 5 mins incubation, the reaction was stopped by 1% H₂SO₄. The OD₄₅₀ nm was ready by SOFTmax program. Between each step, the plates were washed 3 times with PBS/0.1% Tween 20. The plates were blocked by 0.5% BSA in PBS/0.1% Tween 20 for 30 mins at room temperature before adding the serial diluted antibodies.
(In an ELISA, binding on a coated surface is turned into a signal by an enzyme label.)

Turning to “ch2B6 monoclonal antibody (ch2B6HC/ch2B6LC)”, the Mean Fluorescence amounted to 45.6 in assay [1]; 173 in assay [1] (record 2); 552 in assay [2]; 141 in assay [3]; 512 in assay [3] (record 2); 168 in assay [4]. The results for the Mean Fluorescence in assay [5], in assay [5] (record 2) and in assay [6] were 193, 647 and 515, respectively.
For Human IgG1 (antibody), the Mean Fluorescence in assay [2] was 6.07; in assay [5], 9.49; in assay [5] (record 2), 1.23.

B1: hu2B6HC/hu2B6LC(N50Y) (antibody, V domains shown)
VH: QVQLVQSGAEVKKPGASVKVSCKASGYTFTNYWIHWVRQAPGQGLEWMGVIDPSDTYPNYNKKFKGRVTMTTDTSTSTAYMELRSLRSDDTAVYYCARNGDSDYYSGMDYWGQGTTVTVSS
VL: EIVLTQSPDFQSVTPKEKVTITCRTSQSIGTNIHWYQQKPDQSPKLLIKYVSESISGVPSRFSGSGSGTDFTLTINSLEAEDAATYYCQQSNTWPFTFGGGTKVEIK
notes: Human IgG; HEK-293 conditioned medium; also called Hu2B6 N50Y; Hu2B6N50Y
As for B1, the results for the “Mean Fluorescence” value in assay [1], in assay [3] and in assay [5] were 40.1, 135 and 191, respectively. Also, the binding result with soluble FcγIIA is listed as “no binding”.

B2: hu2B6HC/hu2B6LC monoclonal antibody (antibody, V domains shown)
VH: QVQLVQSGAEVKKPGASVKVSCKASGYTFTNYWIHWVRQAPGQGLEWMGVIDPSDTYPNYNKKFKGRVTMTTDTSTSTAYMELRSLRSDDTAVYYCARNGDSDYYSGMDYWGQGTTVTVSS
VL: EIVLTQSPDFQSVTPKEKVTITCRTSQSIGTNIHWYQQKPDQSPKLLIKNVSESISGVPSRFSGSGSGTDFTLTINSLEAEDAATYYCQQSNTWPFTFGGGTKVEIK
notes: Human IgG (appropriate constant region segments); HEK-293 conditioned medium; also called humanized 2B6
On to B2, for which the “Mean Fluorescence” value was 58.6 in assay [1], 174 in assay [3] and 202 in assay [5]. Moreover, the binding result in the assay with soluble FcγIIA was “no binding”.

B3: hu2B6HC/hu2B6LC(N50Y,V51A) (antibody, V domains shown)
VH: QVQLVQSGAEVKKPGASVKVSCKASGYTFTNYWIHWVRQAPGQGLEWMGVIDPSDTYPNYNKKFKGRVTMTTDTSTSTAYMELRSLRSDDTAVYYCARNGDSDYYSGMDYWGQGTTVTVSS
VL: EIVLTQSPDFQSVTPKEKVTITCRTSQSIGTNIHWYQQKPDQSPKLLIKYASESISGVPSRFSGSGSGTDFTLTINSLEAEDAATYYCQQSNTWPFTFGGGTKVEIK
notes: Human IgG; HEK-293 conditioned medium; also called Hu2B6N50Y, V51A; Hu2B6N50Y,V51A
Take B3: the “Mean Fluorescence” value in assay [1] amounted to 46; in assay [3], 134; in assay [5], 167. The binding result with soluble FcγIIA is on record as “no binding”.

For the origin of these results see US20080044417A1 (MacroGenics, published 2008).
